T1: RAD51AP1 WT (UniProt Q96B01 1-352)
T1 sequence: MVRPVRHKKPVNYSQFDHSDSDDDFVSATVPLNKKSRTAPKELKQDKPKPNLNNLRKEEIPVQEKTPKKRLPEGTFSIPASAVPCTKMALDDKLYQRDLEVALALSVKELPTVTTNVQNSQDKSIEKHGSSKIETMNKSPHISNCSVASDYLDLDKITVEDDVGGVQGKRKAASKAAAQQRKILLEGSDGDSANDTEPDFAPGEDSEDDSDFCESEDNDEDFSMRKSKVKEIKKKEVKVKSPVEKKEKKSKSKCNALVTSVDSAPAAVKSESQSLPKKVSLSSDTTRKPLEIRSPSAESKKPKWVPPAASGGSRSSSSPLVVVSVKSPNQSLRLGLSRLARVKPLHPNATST

B1: 63-nt ssRNA (ssRNA)
RNA: AACUUGGUCUGACAGUUACCAAUGCUUAAUCAGUGAGGCACCUAUCUCAGCGAUCUGUCUAUU
B2: 50-nt DNA-RNA hybrid (DNA:RNA)
DNA: ATCATCACCATAACGTCGATGTATCAACTTCGATTAGTCACACCAATTAA
RNA: UUAAUUGGUGUGACUAAUCGAAGUUGAUACAUCGACGUUAUGGUGAUGAU

Molecular target: T1, RAD51AP1 WT
Assay: EMSA

Row | Binder | binding result
1 | B1 | binds
2 | B2 | binds

— publication PMC8855348
